Assay results published in paper PMC4752584, “The C repressor of the P2 bacteriophage” (Journal of Biomolecular Nmr, 2015).

Molecular target: the molecule itself
Assay: NMR solution structure; 13C,15N-labelled P2 C at 6 mg/ml in 10 mM Na-phosphate pH 7.0, 150 mM NaCl, 10 % D2O; 13C- and 15N-NOESY-HSQC, 150 ms mixing time, 310 K, 900 MHz; CYANA2.1; homodimer interface found with aid from the crystal structure 2XCJ

B1: C-repressor of bacteriophage P2 (natural protein)
chain: MSNTISEKIVLMRKSEYLSRQQLADLTGVPYGTLSYYESGRSTPPTDVMMNILQTPQFTKYTLWFMTNQIAPEFGQIAPALAHFGQNETTSPHSGQKTG
notes: C repressor of bacteriophage P2, a 99 amino acid protein; wildtype; signals of residues up to 99 are reported; Uniformly 13C,15N labelled for the structure (grown in M9 with 13C-glucose and 15N-NH4Cl); No tag is mentioned; also called P2 C; P2C; source: E. coli BL21(DE3) with plasmid pEE679, purified (DEAE flow-through, HiTrap Heparin, Superdex 200)
binding result: binds
